Assay: label from the status in PepcDB records

MWRSLLLPTCSHALIELHFFSHYCTIMMNQNTQPTNNLKDKKITYNFNKLQKRLRRNVGNAIANFNMIEAGDKVMVCLSGGKDSYTLLDILLNLKLSAPINFDIVAVNLDQKQPGFPEHILPEYLASIGVEYKIVQENTYGIVKEKIPEGKTTCSLCSRLRRGILYRTATELGATKIALGHHRDDMLETLFLNMFYNGKLKSMPPKLISDDAKHIVIRPLAYCKEKDIEKYAEAKQFPIIPCNLCGSQPNLQRQVVKEMLQNWDRQYPGRIETMFSALQNVTPSHLCDTQLFNFKAVKHGEMINGIEGDIAFDKMDIPMTLNIQEEDEKQAYTQNGTIQFKAV
protein production: failed

MYQVVASDLDGTLLSPDHFLTPYAKETLKLLTARGINFVFATGRHYIDVGQIRDNLGIRSYMITSNGARVHDSDGQQIFAHNLDRDIAADLFEIVRNDPKIVTNVYREDEWYMNRHRPEEMRFFKEAVFNYKLYEPGELDPQGISKVFFTCEDHEHLLPLEQAMNARWGDRVNVSFSTLTCLEVMAGGVSKGHALEAVAKMLGYTLSDCIAFGDGMNDAEMLSMAGKGCIMANAHQRLKDLHPELEVIGSNADDAVPRYLRKLYLD
protein production: not failed

MTDIVLADRYRLGDVIGTGGMSEVYEATDVLLGRKVAVKMLRADLARDVNFRERFRREAQNSGKLNHPAIVAVYDTGETPRAGLNTPYIVMELVNGRTLRDIVREDGPLTPSQAAHTLIPVCHALQVSHDAGIIHRDIKPANVMITNTGAVKIMDFGIARALDDATSAMTQTSAVIGTAQYLSPEQARGKLADARSDVYALGCVLYETLTGKPPFEGETPFAVAYQHVQEDPVKPSEYIADLSPTAAINVDAVVLTAMAKHPGDRYQTAQEMCADLERLGRNAVTDAARHYVTPTSFATQDPASTTVVPVTQVTELDHAEAGAGIGAGVVPAGAVAGSAAVAGSGGAHAAPRSSNRGLRILAAILAVLVLAVGAGFAIDYFGGGPFSQRSTVTIPKLQNSTQQDAVNQLEKLGLQVNVIEEPNPDIPRGKVIRTNPTDGSNVQRNSTVRLTISSGKEITEVPDLSGKNTADAVKILEAAGLLLDPTVREDSSDTVPKGEIIEVSPAAGSQVSRGSKVSITVSTGVETVRVPVITGMKWDQAEGNLTSLGFKPEVVRVDSVEPAGTVVAVPDEGAEVPKGSSVTVQISNGAMFTVPEITRQTIDDAVRILHDAGWKGNASRLIQAAKVPTVAVTDQNLIASQLPTPGTALRKDAPIEIRLYEFNLAALVPPAQH
protein production: failed

MTATWEKKEGNEGLLTVTVPAEKVNKALDQAFKKVVKQINVPGFRKGKVPRPIFEQRFGVEALYQDAIDILLPDAYGEAIDETDIKPVAQPEVSVTQIEKGKDFIFEATVTVEPEVKLGDYKGLEIEKQETELSDDELQEAIDHSLGHLAEMVVKEDGVVENGDTVNIDFSGSVDGEEFEGGQAEGYDLEIGSGSFIPGFEEQLEGMKVDEEKDVVVTFPEEYHAEELAGKEATFKTKVNEIKFKEVPELTDEIANELDAEANTVDEYKENLRKRLAEQKATDAENVEKEEAITKATDNTTIDIPEAMVNTELDRMVSEFAQRIQQQGLDLQTYFQISGQDETQLREQMKDDAEQRVKTNLTLTAIAEAEKIEATDEDIDKELEKMSKQFNISVEDIKNTLGNTDIIKNDVRIQKVIDLLRDNAKFVEGTKED
protein production: failed

MENLYKELGDQSLHKDFCQTVASTFSCSVNRNGKSSITWKQVQIWFQEKLKHQSQPKSKTLPSPPLQIHDLSNPSSYASNASNATFVGNSTFVQTRKGKASDLADLAFEAKSARDYAWYDVSSFLTYRVLRTGELEVRVRFSGFDNRHDEWVNVKTSVRERSIPVEPSECGRVNVGDLLLCFQEREDQALYCDGHVLNIKRGIHDHARCNCVFLVRYELDNTEESLGLERICRRPEE
protein production: failed

PRAAGHSEEVLEREASFSLTTIDGEVISLNNVGGDVVILWFMAAWCPSCVYMADLLDRLTEKYREISVIAIDFWTAEALKALGLNKPGYPPPDTPEMFRKFIANYGDPSWIMVMDDGSLVEKFNVRSIDYIVIMDKSSNVLYAGTTPSLGELESVIKSVQGG
protein production: not failed

MGQAPDRPHLETFLARLRAGAKILELGCGGGQDSEYMLSAGFDVHPTDGTPDIAKAAQARLGIPVRTLLFENIEDAALYDAVWANACLLHVPRLALPGIIGRIHTALKPGGVFYASFKAGEVEGRDTFGRYYNYPSKAWLEETYGQFAWTEVEIEARQGSGYDKLPTDWLHVTATKALEHHHHHH
protein production: failed

MERKFMSLQPSISVSEMEPNGTFSNNNSRNCTIENFKREFFPIVYLIIFFWGVLGNGLSIYVFLQPYKKSTSVNVFMLNLAISDLLFISTLPFRADYYLRGSNWIFGDLACRIMSYSLYVNMYSSIYFLTVLSVVRFLAMVHPFRLLHVTSIRSAWILCGIIWILIMASSIMLLDSGSEQNGSVTSCLELNLYKIAKLQTMNYIALVVGCLLPFFTLSICYLLIIRVLLKVEVPESGLRVSHRKALTTIIITLIIFFLCFLPYHTLRTVHLTTWKVGLCKDRLHKALVITLALAAANACFNPLLYYFAGENFKDRLKSALRKGHPQKAKTKCVFPVSVWLRKETRV
protein production: failed

MKTLDFRRAGAHIALVVLFAVCPVAFADENDEVAKLYQQGNLDKALEQANAYLALKPKDPQMRFHKGLILTEQQKIPDAIKVFSSLSEDYPNLPEPYNNLAVLYASQGLYEKARGALEAAIRTHPSYSIAHENLGDIYAKLASEAYGKALQLDQGNAAAQTKLAMIKDLFIGKSGAIKTASAATAPAPPASAAPRSPAATTPSPPRSAAPATPPASVHPAPGKAPQKSAEKKTEKAEKSAPGKIAAVETHSPEKKTDVPDESDEIIKTVNAWARAWSDKNVTAYFAFYAADFQTPRGVKRTTWEKTRRDRIIKPKAIQVEITHPKVTLINPARARVSFRQLYHSDAFKHDSSKTLEMVKTDGKWQIRQERSAK
protein production: failed

MKTIVIEDKQRIESIILQADACFVGITDLEGNPYVVPMNFGYENDTLYLHSGPEGGKIEMLQRNNNVCITFSLGHKLVYQHKQVACSYSMRSESAMCRGKVEFIEDMEEKRHALDIIMRHYTKDQFSYSDPAVRNVKVWKVPVDQMTGKVFGLRADEKP
protein production: not failed

SAAVGAEARGAWCVPCLVSLDTLQELCRKEKLTCKSIGITKRNLNNYEVEYLCDYKVVKDMEYYLVKWKGWPDSTNTWEPLQNLKCPLLLQQFSNDKHNYLSQVITSEEAERRGQFYDNKGITYLFDLDYESDEFTVDAARYGNVSHFVNHSCDPNLQVFNVFIDNLDTRLPRIALFSTRTINAGEELTFDYQMKGSGDISSDSIDHSPAKKRVRTVCKCGAVTCRGYLN
protein production: failed

RYPTNNFGNCTGCSATFSVLKKRRSCSNCGNSFCSRCCSFKVPKSSMGATAPEAQRETVFVCASCNQTLSK
protein production: not failed

MATKLVIAIVQDKDANYLSDQFIDQNVRATKLSTTGGFLQSGNTTFMIGIEEERVPEVLEIIKKASHTREEFMTPSVNMDVNMEGTTAYPIKVQVGGATVLVLPVDQFERF
protein production: not failed

MASLSELAVFIAVAEQGSFVGAGRVLGVSASAVGKRISRLEVDLGVRLLQRNTRSLALTAEGETVLSRGRSLLDEAESLRVVLERSSRQPGGVLRLSLPPIGGVLMAELAAFRQRYPEVALELDYSERNVDIIEEGFDAAIRVGAGDDGKLRSLALPGFRRLIVAAPDYLVRHGQPRSAAQLAEHQLIHYRSPNSGKLEAWPLVNAELPRALVCNSVHARLDFALQGQGIACLPDISIRRELEDGSLRPLLGSENGEKVVLRLLWPSSRGLSARMEAFLGFMRERSGAAPCENFKVRA
protein production: failed

MHKEENMSDLYLKLVNTPVGKTAAQSLGLPSPAPLKRLKRVDQPFIEGDVLIGAGNGARAIATLGSIVGASPATLHHATGPETLAESAKTSNKAQALDITGEVSGKFSALIFDASGLQKPDELRALYDFFHPTIRKLATNGRVLVIGQDPHTCRKAPQAAAQQALEGFVRAVGKEIGKKGATANLVWIAPNAENQLDSSVRFFLSPRSAYVSGQVVRIGKADEAKATNPVAPLAGKVALVTGASRGIGAAIAETLARDGATVIGLDIPPALEELQKVTGALKGKALACDITDEKAPKLIADFIEKETGGVDFVIHNAGITRDKTLGNMPEHFWDMTIAVNLTAEELIDEELAERKLMRENGRIVCISSISGIAGNFGQTNYSCAKSGVIGYVEAMARHLKNGITINAIAPGFIETQMTAAMPFTIREAGRRMNSLSQGGQPVDVAEAIAWYCNPASAGVNGNVVRVCGQSLIGK
protein production: failed

MAQKLYPPIHPGEILMEDFIKGFGLTQNKVAVSIGVPPRRINEIVHGKRSITADTALRLGRYFGIDPQFWLSLQTQYELELDRDAGAATYAQITPLKVA
protein production: failed

MSLDQIKIAYIGGGSQGWARSLMSDLSIDERMSGTVALYDLDFEAAQKNEVIGNHSGNGRWRYEAVSTLKKALSAADIVIISILPGSLDDMEVDVHLPERCGIYQSVGDTVGPGGIIRGLRAVPIFAEIARAIRDYAPESWVINYTNPMSVCTRVLYKVFPGIKAIGCCHEVFGTQKLLAEMVTERLGIEVPRREDIRVNVLGINHFTWITKASYRHIDLLPIFREFSAHYGESGYELEGECWRDSVFCSAHRVAFDLFETYGAIPAAGDRHLAEFLPGPYLKQPEVWKFHLTPISFRKQDRAEKRQETERLIVQQRGVAEKASGEEGVNIIAALLGLGELVTNVNMPNQGQVLNLPIQAIVETNAFITRNRVQPILSGALPKGVEMLAARHISNQEAVADAGLTKDTGLAFQAFLNDPLVQIDRSDAEQLFNDMLQCIMQSEGHHHHHH
protein production: not failed

MAALWAAEAALTPGEVQAELASDLARTTVTTILSRLYDKGVVDRRGVAMVTTPCRTPRGSPPGACIPSSTVTLTGRPSWPASSPSSIRTTNSFCASYWRPTRDDRPLLIPLLLPFVMPLLARRALDRLAPATALWALTAAALVLAGACVTALGALVLTGLLKLPAFAALGELAHPLRTPTGYLVLPAAAIATGLLTIGAWTLAHSALRQTRAFRTARAEADRRPTAGDLCVVDSPHPDAYALPGRPHRIVVTTAMLRSLKPDERDALFAHERAHNQGATTASWSIGSAACRPGRMVSYLGACGARRAGPMRGRRGPRAIPVVCRPVPRSCRGRIVGVSLPSARW
protein production: failed

MTTPPLRIGLIGAGYIAAWHADALRAVPGVKLTAVCDPNMDLAEGLAAAHGARAFGDLDDLIGAGLCDGVHILTPPDLHHPLALHCLRAGLHVLVEKPVALNAAQTQEIEDAARAANRRFHAGHNFLGLPSYTRLKREIRRGALGRVSGAEIRWCYPFGPLRAGPFGIWPLRDTRNLMLEFGPHLMSLVIDLFGLPEIEHVALSKPVALPGAGTRPQGWRILARAGEVELVLILSLVETADDRSVTIRGSSARARLDLAADTLVIDAENTADLVANPLLRQLSLARQHLVQGSVNAARQLTSFNRKSPYALSFRGLANGIWEPLAQNAPADPRWSGSSAVAVMTALDAVLERVDWPAPVPASPSRKPAPSAMVIGGTGFIGRALTRELVARGSDVRVISRGRQGSFADLPDQVETVSLSLRDTEGLARAMAGIDTVYNLARSTDSSWEDCLQNDVAVAEGIGKAALAAGVRRLVYTGTIASFDMSDPAATITDATPLPDEMDERNLYARSKAECERRLMALHRQSALPLVIARPGIVLGAGGPLQHWGIGRWHGAGAVRLWGNGRNPLPFVLIGDCVDGLIRCAEAEGIEGRAFNLVGPPILSARDYFDAIHDRLGARIRVSGGNLSLMYAADWVKFQLKTRVLGRSGLTRPSRADWLSRAHQSRFDISGARSALGWHPVSDADAFLTNAVDEAGLLGF
protein production: failed

MMILAWILVIIIISVITKWVVHLLTQRQSIYLTKLVITTSCIIQFIIVFFLMKAIVHYLAQALDVFYR
protein production: failed

MDMQHRIRQLFQASIETKQQALEVLPPYIEQASLVMVNALLNEGKILSCGNGGSAGDAQHFSSELLNRFERERPSLPAVALTTDSSTITSIANDYSYNEVFSKQIRALGQPGDVLLAISTSGNSANVIQAIQAAHDREMLVVALTGRDGGGMASLLLPEDVEIRVPSKITARIQEVHLLAIHCLCDLIDRQLFGSEE
protein production: not failed

LAMPPGNSHGLEVGSLAEVKENPPFYGVIRWIGQPPGLNEVLAGLELEDECAGCTDGTFRGTRYFTCALKKALFVKLKSCRPDSRFASLQP
protein production: not failed

From a protein production outcome set (Wang et al. 2014)
